In this experiment the target is T1, recombinant human His6-tagged annexin A2 (human, UniProt P07355 1-339).
T1 construct: annexin A2, human, recombinant; No catalogue number is printed; also called His6-AnxA2; His6-tagged AnxA2; source: bought: Novus Biologicals
Description: pull-down; about 20 µg concentrated culture supernatant (SPI-2 inducing conditions) mixed with 5 µg His6-annexin A2 overnight at 4 °C; Ni-Sepharose beads 2 h at room temperature; four washes in TBS-T (20 mM Tris-HCl, 150 mM NaCl, 0.75% Triton X-100); Western blot with anti-HA and anti-AnxA2; densitometry of 3 blots, with AnxA2 over without AnxA2. Particulars: one partner purified.

T1 sequence (P07355 whole entry): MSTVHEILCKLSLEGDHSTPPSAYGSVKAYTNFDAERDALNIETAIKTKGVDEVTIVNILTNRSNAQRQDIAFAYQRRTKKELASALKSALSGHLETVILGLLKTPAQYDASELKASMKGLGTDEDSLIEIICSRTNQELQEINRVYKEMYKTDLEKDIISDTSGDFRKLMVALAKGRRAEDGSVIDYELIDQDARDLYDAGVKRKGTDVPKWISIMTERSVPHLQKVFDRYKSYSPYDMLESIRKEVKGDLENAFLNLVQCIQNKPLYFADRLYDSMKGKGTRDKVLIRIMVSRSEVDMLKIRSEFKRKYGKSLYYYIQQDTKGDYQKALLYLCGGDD

B1: SopD2-2HA (natural protein)
chain: MPVTLSFGNRHNYEINHSRLARLMSPDKEEALYMGVWDRFKDCFRTHKKQEVLEVLYTLIHGCERENQAELNVDITGMEKIHAFTQLKEYANPSQQDRFVMRFDMNQTQVLFEIDGKVIDKCNLHRLLNVSENCIFKVMEEDEEELFLKICIKYGEKISRYPELLEGFANKLKDAVNEDDDVKDEVYKLMRSGEDRKMECVEWNGTLTEEEKNKLRCLQMGSFNITTQFFKIGYWELEGEVLFDMVHPTLSYLLQAYKPSLSSDLIETNTMLFSDVLNKDYDDYQNNKREIDAILRRIYRSHNNTLFISEKSSCRNMLI
notes: SopD2, T3SS2-secreted effector of Salmonella enterica serovar Typhimurium SL1344, under its native promoter in pACYC184; also called pSopD2-2HA; source: S. Typhimurium SL1344 T3SS2+ ΔsopD2 carrying pSopD2-2HA: translocated into infected HeLa cells, in lysate; secreted under SPI-2 inducing conditions (LPM pH 5.8), concentrated culture supernatant; not shown: 2xHA (tandem HA), C-terminal, kept
As for B1, the “fold change of effector pulled down with AnxA2 over without AnxA2” value is 12.3 fold.

These data come from PMC8655068, “Quantitative proteomic screen identifies annexin A2 as a host target for Salmonella pathogenicity island-2 effectors SopD2 and PipB2” (Scientific Reports, 2021).
